We go through three molecules from article PMC11203719, “Mts1 (S100A4) and Its Peptide Demonstrate Cytotoxic Activity in Complex with Tag7 (PGLYRP1) Peptide” (International Journal of Molecular Sciences, 2024).

To fix the notation:
B1: Mts1 (S100A4) protein, recombinant human (natural protein)
chain: not shown
modifications: Alexa Fluor 633 label (only in the thermophoresis with Tag7, 17.1, 17.1A and 17.1B)
notes: cDNA subcloned into pQE-30; PDB 3NCF is printed for Mts1 but may be a misprint; also called metastasin 1; full-sized Mts1; source: E. coli M15 (pREP4), pQE-30, purified (HisTrap FF)
B2: peptide 17.1B of Tag7 (PGLYRP1) (peptide)
peptide: HRDVQRT
notes: source: synthetic peptide (Fmoc, HPLC purified)
B3: peptide 17.1A of Tag7 (PGLYRP1) (peptide)
peptide: RSNYVLKG
notes: as for B2

Data set [1] deals with the molecule itself. Put plainly: SDS-PAGE and Western blot; eluate of recombinant Mts1 from 17.1-Sepharose resolved by 12% SDS-PAGE and blotted with anti-Mts1; oligomer state read from the band.
For data set [2], the target named is B1. As to the kind of experiment: MST; Mts1 labelled with Alexa Fluor 633 (200 nM), preincubated 20 min in the dark at room temperature with 16 concentrations of Tag7 or peptide; Monolith NT.115, 10% IR laser power; apparent Kd. The conditions noted are these: both partners purified.

B1: the “stoichiometry N” value in data set [1] was determined as 4.

For B2, the Kd in data set [2] came to 7.26 nM.

In the case of B3, in data set [2], the Kd is 109 nM.
